From patent US20180087042A1 (OPKO BIOLOGICS, published 2018)
Values belong to the substance of their own block, whether it stands above or below them.

Key:
Assay in all cases: cell-based or functional assay
[1] = target: NovoSeven® (commercial recombinant human FVIIa) (human) (UniProt P08709)
[2] = target: MOD-5014 (FVIIa-CTP3: activated Factor VII with three CTP peptides attached at the C-terminus) (human) (UniProt P08709)
[3] = target: Factor X (UniProt P00742 41-488, limits assumed)
Chain of Factor X (P00742 41-488 limits assumed): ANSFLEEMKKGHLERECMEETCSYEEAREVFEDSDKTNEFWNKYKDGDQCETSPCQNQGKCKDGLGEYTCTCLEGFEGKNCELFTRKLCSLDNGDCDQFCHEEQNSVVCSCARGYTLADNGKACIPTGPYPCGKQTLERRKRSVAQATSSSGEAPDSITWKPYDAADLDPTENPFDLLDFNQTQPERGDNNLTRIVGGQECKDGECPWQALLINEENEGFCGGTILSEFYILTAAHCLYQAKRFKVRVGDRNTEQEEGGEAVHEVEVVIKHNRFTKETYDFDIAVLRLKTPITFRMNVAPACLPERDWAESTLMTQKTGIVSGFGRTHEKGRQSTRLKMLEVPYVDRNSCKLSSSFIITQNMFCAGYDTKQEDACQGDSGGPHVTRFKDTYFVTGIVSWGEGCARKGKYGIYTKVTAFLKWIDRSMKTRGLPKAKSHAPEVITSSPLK

Chain of NovoSeven® (commercial recombinant human FVIIa) (P08709 61-466 limits assumed): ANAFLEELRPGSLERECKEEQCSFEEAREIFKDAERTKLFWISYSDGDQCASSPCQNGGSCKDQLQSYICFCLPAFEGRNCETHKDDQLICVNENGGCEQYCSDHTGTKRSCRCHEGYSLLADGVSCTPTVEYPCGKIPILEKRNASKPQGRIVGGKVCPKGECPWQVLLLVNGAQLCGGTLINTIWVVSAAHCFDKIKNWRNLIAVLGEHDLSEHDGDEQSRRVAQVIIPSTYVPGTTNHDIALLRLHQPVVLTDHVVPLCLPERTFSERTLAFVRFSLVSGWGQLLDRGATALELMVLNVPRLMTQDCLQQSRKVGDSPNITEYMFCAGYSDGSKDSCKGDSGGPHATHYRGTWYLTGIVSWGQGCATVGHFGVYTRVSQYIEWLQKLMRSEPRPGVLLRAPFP
Chain of tissue factor pathway inhibitor (TFPI) (P10646 29-304 limits assumed): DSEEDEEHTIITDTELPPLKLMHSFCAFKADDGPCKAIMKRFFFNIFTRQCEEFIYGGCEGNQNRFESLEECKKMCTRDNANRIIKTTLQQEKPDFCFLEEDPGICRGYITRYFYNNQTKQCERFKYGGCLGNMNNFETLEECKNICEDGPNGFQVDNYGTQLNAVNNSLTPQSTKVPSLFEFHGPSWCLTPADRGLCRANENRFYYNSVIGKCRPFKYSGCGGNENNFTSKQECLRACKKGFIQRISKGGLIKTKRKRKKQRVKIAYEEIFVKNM

% Inhibition of clotting activity, TFPI 0.625 ng/mL [1]: 25%
% Inhibition of clotting activity, TFPI 6.25 ng/mL [1]: 24%
% Inhibition of clotting activity, TFPI 62.5 ng/mL [1]: 38%
% Inhibition of clotting activity, TFPI 625 ng/mL [1]: 87%
% Inhibition of clotting activity, TFPI 1250 ng/mL [1]: 96%
Activity (mU/mL), Staclot clotting, TFPI 0.625 ng/mL [1]: 54.5 mU/mL
Activity (mU/mL), Staclot clotting, TFPI 6.25 ng/mL [1]: 55.3 mU/mL
Activity (mU/mL), Staclot clotting, TFPI 62.5 ng/mL [1]: 45 mU/mL
Activity (mU/mL), Staclot clotting, TFPI 625 ng/mL [1]: 9.5 mU/mL
Activity (mU/mL), Staclot clotting, TFPI 1250 ng/mL [1]: 2.9 mU/mL
FX activation by NovoSeven® (0.7 ng/ml) + 1 U/µl heparin at TFPI 0.002048 ng/ml [1]: 1.33
FX activation by NovoSeven® (0.7 ng/ml) + 1 U/µl heparin at TFPI 0.010240 ng/ml [1]: 1.3
FX activation by NovoSeven® (0.7 ng/ml) + 1 U/µl heparin at TFPI 0.051200 ng/ml [1]: 1.37
FX activation by NovoSeven® (0.7 ng/ml) + 1 U/µl heparin at TFPI 1.28 ng/ml [1]: 1.31
FX activation by NovoSeven® (0.7 ng/ml) + 1 U/µl heparin at TFPI 6.40 ng/ml [1]: 1.21
FX activation by NovoSeven® (0.7 ng/ml) + 1 U/µl heparin at TFPI 32.00 ng/ml [1]: 1.01
FX activation by NovoSeven® (0.7 ng/ml) + 1 U/µl heparin at TFPI 160.00 ng/ml [1]: 0.764
FX activation by NovoSeven® (0.7 ng/ml) + 1 U/µl heparin at TFPI 800.00 ng/ml [1]: 0.409
FX activation by NovoSeven® (0.7 ng/ml) + 1 U/µl heparin at TFPI 4000.00 ng/ml [1]: 0.241
FX activation by NovoSeven® (0.7 ng/ml) + 1 U/µl heparin at TFPI 20000.00 ng/ml [1]: 0.222
FX activation by NovoSeven® (4 ng/ml) at TFPI 0.002048 ng/ml [1]: 1.72
FX activation by NovoSeven® (4 ng/ml) at TFPI 0.010240 ng/ml [1]: 1.7
FX activation by NovoSeven® (4 ng/ml) at TFPI 0.051200 ng/ml [1]: 1.73
FX activation by NovoSeven® (4 ng/ml) at TFPI 0.2560 ng/ml [1]: 1.7
FX activation by NovoSeven® (4 ng/ml) at TFPI 1.28 ng/ml [1]: 1.66
FX activation by NovoSeven® (4 ng/ml) at TFPI 6.40 ng/ml [1]: 1.59
FX activation by NovoSeven® (4 ng/ml) at TFPI 32.00 ng/ml [1]: 1.5
FX activation by NovoSeven® (4 ng/ml) at TFPI 160.00 ng/ml [1]: 1.34
FX activation by NovoSeven® (4 ng/ml) at TFPI 800.00 ng/ml [1]: 1.02
FX activation by NovoSeven® (4 ng/ml) at TFPI 4000.00 ng/ml [1]: 0.406
FX activation by NovoSeven® (4 ng/ml) at TFPI 20000.00 ng/ml [1]: 0.206
O.D, FX activation by NovoSeven® (0.64 ng/ml) at TFPI 0.002048 ng/ml [1]: 1.5 O.D
O.D, FX activation by NovoSeven® (0.64 ng/ml) at TFPI 0.010240 ng/ml [1]: 1.51 O.D
O.D, FX activation by NovoSeven® (0.64 ng/ml) at TFPI 0.051200 ng/ml [1]: 1.52 O.D
O.D, FX activation by NovoSeven® (0.64 ng/ml) at TFPI 0.2560 ng/ml [1]: 1.43 O.D
O.D, FX activation by NovoSeven® (0.64 ng/ml) at TFPI 1.28 ng/ml [1]: 1.47 O.D
O.D, FX activation by NovoSeven® (0.64 ng/ml) at TFPI 6.40 ng/ml [1]: 1.42 O.D
O.D, FX activation by NovoSeven® (0.64 ng/ml) at TFPI 32.00 ng/ml [1]: 1.38 O.D
O.D, FX activation by NovoSeven® (0.64 ng/ml) at TFPI 160.00 ng/ml [1]: 1.34 O.D
O.D, FX activation by NovoSeven® (0.64 ng/ml) at TFPI 800.00 ng/ml [1]: 1.04 O.D
O.D, FX activation by NovoSeven® (0.64 ng/ml) at TFPI 4000.00 ng/ml [1]: 0.83 O.D
O.D, FX activation by NovoSeven® (0.64 ng/ml) at TFPI 20000.00 ng/ml [1]: 0.429 O.D
% Inhibition of clotting activity, TFPI 0.625 ng/mL [2]: 15%
% Inhibition of clotting activity, TFPI 6.25 ng/mL [2]: 15%
% Inhibition of clotting activity, TFPI 62.5 ng/mL [2]: 29%
% Inhibition of clotting activity, TFPI 625 ng/mL [2]: 80%
% Inhibition of clotting activity, TFPI 1250 ng/mL [2]: 89%
Activity (mU/mL), Staclot clotting, TFPI 0.625 ng/mL [2]: 56.7 mU/mL
Activity (mU/mL), Staclot clotting, TFPI 6.25 ng/mL [2]: 56.7 mU/mL
Activity (mU/mL), Staclot clotting, TFPI 62.5 ng/mL [2]: 47.4 mU/mL
Activity (mU/mL), Staclot clotting, TFPI 625 ng/mL [2]: 13.2 mU/mL
Activity (mU/mL), Staclot clotting, TFPI 1250 ng/mL [2]: 7.3 mU/mL
FX activation by MOD-5014 (0.7 ng/ml) + 1 U/µl heparin at TFPI 0.002048 ng/ml [2]: 1.27
FX activation by MOD-5014 (0.7 ng/ml) + 1 U/µl heparin at TFPI 0.010240 ng/ml [2]: 1.29
FX activation by MOD-5014 (0.7 ng/ml) + 1 U/µl heparin at TFPI 0.051200 ng/ml [2]: 1.35
FX activation by MOD-5014 (0.7 ng/ml) + 1 U/µl heparin at TFPI 1.28 ng/ml [2]: 1.26
FX activation by MOD-5014 (0.7 ng/ml) + 1 U/µl heparin at TFPI 6.40 ng/ml [2]: 1.16
FX activation by MOD-5014 (0.7 ng/ml) + 1 U/µl heparin at TFPI 32.00 ng/ml [2]: 0.915
FX activation by MOD-5014 (0.7 ng/ml) + 1 U/µl heparin at TFPI 160.00 ng/ml [2]: 0.539
FX activation by MOD-5014 (0.7 ng/ml) + 1 U/µl heparin at TFPI 800.00 ng/ml [2]: 0.32
FX activation by MOD-5014 (0.7 ng/ml) + 1 U/µl heparin at TFPI 4000.00 ng/ml [2]: 0.115
FX activation by MOD-5014 (0.7 ng/ml) + 1 U/µl heparin at TFPI 20000.00 ng/ml [2]: 0.15
FX activation by MOD-5014 (4 ng/ml) at TFPI 0.002048 ng/ml [2]: 1.65
FX activation by MOD-5014 (4 ng/ml) at TFPI 0.010240 ng/ml [2]: 1.64
FX activation by MOD-5014 (4 ng/ml) at TFPI 0.051200 ng/ml [2]: 1.6
FX activation by MOD-5014 (4 ng/ml) at TFPI 0.2560 ng/ml [2]: 1.62
FX activation by MOD-5014 (4 ng/ml) at TFPI 1.28 ng/ml [2]: 1.56
FX activation by MOD-5014 (4 ng/ml) at TFPI 6.40 ng/ml [2]: 1.54
FX activation by MOD-5014 (4 ng/ml) at TFPI 32.00 ng/ml [2]: 1.47
FX activation by MOD-5014 (4 ng/ml) at TFPI 160.00 ng/ml [2]: 1.14
FX activation by MOD-5014 (4 ng/ml) at TFPI 800.00 ng/ml [2]: 0.836
FX activation by MOD-5014 (4 ng/ml) at TFPI 4000.00 ng/ml [2]: 0.38
FX activation by MOD-5014 (4 ng/ml) at TFPI 20000.00 ng/ml [2]: 0.17
O.D, FX activation by MOD-5014 (0.69 ng/ml) at TFPI 0.002048 ng/ml [2]: 1.48 O.D
O.D, FX activation by MOD-5014 (0.69 ng/ml) at TFPI 0.010240 ng/ml [2]: 1.45 O.D
O.D, FX activation by MOD-5014 (0.69 ng/ml) at TFPI 0.051200 ng/ml [2]: 1.45 O.D
O.D, FX activation by MOD-5014 (0.69 ng/ml) at TFPI 0.2560 ng/ml [2]: 1.46 O.D
O.D, FX activation by MOD-5014 (0.69 ng/ml) at TFPI 1.28 ng/ml [2]: 1.39 O.D
O.D, FX activation by MOD-5014 (0.69 ng/ml) at TFPI 6.40 ng/ml [2]: 1.38 O.D
O.D, FX activation by MOD-5014 (0.69 ng/ml) at TFPI 32.00 ng/ml [2]: 1.36 O.D
O.D, FX activation by MOD-5014 (0.69 ng/ml) at TFPI 160.00 ng/ml [2]: 1.11 O.D
O.D, FX activation by MOD-5014 (0.69 ng/ml) at TFPI 800.00 ng/ml [2]: 1.01 O.D
O.D, FX activation by MOD-5014 (0.69 ng/ml) at TFPI 4000.00 ng/ml [2]: 0.691 O.D
O.D, FX activation by MOD-5014 (0.69 ng/ml) at TFPI 20000.00 ng/ml [2]: 0.346 O.D
Substance: tissue factor pathway inhibitor (TFPI) (from UniProt P10646 29-304)

EC50 of Factor X activation (BIOPHEN FVII chromogenic assay) [3]: 0.38 ng/mL
O.D, FX activation at rFVIIa 0.00128 ng/ml [3]: 0.123 O.D
O.D, FX activation at rFVIIa 0.00640 ng/ml [3]: 0.133 O.D
O.D, FX activation at rFVIIa 0.0320 ng/ml [3]: 0.138 O.D
O.D, FX activation at rFVIIa 0.160 ng/ml [3]: 0.178 O.D
O.D, FX activation at rFVIIa 0.80 ng/ml [3]: 0.303 O.D
O.D, FX activation at rFVIIa 4.00 ng/ml [3]: 0.352 O.D
O.D, FX activation at rFVIIa 20.00 ng/ml [3]: 0.365 O.D
O.D, FX activation at rFVIIa 100.00 ng/ml [3]: 0.363 O.D
Substance: NovoSeven® (commercial recombinant human FVIIa) (from UniProt P08709 61-466) (enzyme)
